# Data as given in patent US20090004190A1, “Rage Fusion Proteins And Methods Of Use” (priority 2006, published 2009).
# Molecular target: Fc receptor on THP-1 cells
# Assay: cell-based or functional assay
substance,measurement,value
"human IgG1 (heat aggregated, coated on wells) (antibody)","TNF secreted by THP-1 cells in wells coated with 10 µg/well heat aggregated protein (ELISA, 24 h)",> 40 ng/well
